Assay results published in paper PMC11601148, “Effects of proline substitution/inclusion on the nanostructure of a self-assembling β-sheet-forming peptide†” (RSC Advances, 2024).

B1: FEFEPKFKF (peptide)
peptide: FEFEPKFKF
notes: KPE with the polar residues shuffled: glutamic acids on one side of the proline, lysines on the other; source: synthetic peptide, bought: Biomatik LLC (HCl salt, >90% purity)
B2: FEFKFEFK (peptide)
peptide: FEFKFEFK
notes: also called F8; source: synthetic peptide, bought: Biomatik LLC (HCl salt, >90% purity)
B3: FEFKPEFKF (peptide)
peptide: FEFKPEFKF
notes: FP with one more phenylalanine at the C-terminal end; also called KEP; source: synthetic peptide, bought: Biomatik LLC (HCl salt, >90% purity)

How the values were obtained:
[1] = target: the molecule itself; test: SAXS + WAXS; peptide samples at 5 and 10 mg/mL in quartz capillaries, beamline I22 at Diamond Light Source, water as background
[2] = target: the molecule itself; test: ITC; NaOH (0.0025, 0.0125, 0.025 M) titrated into peptide at 0.1, 0.5 and 1 mg/mL in water, 25 °C; the energy change on deprotonation is read as a sign of self-assembly, no binding constant is fitted

Row | Protein | binding result [1] | binding result [2]
1 | B1 | binds | –
2 | B2 | – | binds
3 | B3 | – | binds
